Patent US20160272683A1 (Novo Nordisk, published 2016)
Each block holds one binder with its values, some of them ahead of it. Numbered stars: 1 amine (or outer) side, 2 acyl side, 3 side chain; on linkers, the order of the positions; unused ones are H or OH. * marks the point of attachment. C20 diacid = O=C(O)CCCCCCCCCCCCCCCCCCC(=O)*; C18 diacid = O=C(O)CCCCCCCCCCCCCCCCC(=O)*; γGlu = O=C(O)[C@H](CCC(=O)[*:2])N[*:1]

How the values were obtained:
[1] = target: T1, human amylin 3(a) receptor (human calcitonin receptor co-expressed with RAMP-3) on BHK570/CRE-luc cells (human, UniProt P30988 25-474; O60896 24-148); experiment: cell-based or functional assay
T1 sequence (looked up) 1: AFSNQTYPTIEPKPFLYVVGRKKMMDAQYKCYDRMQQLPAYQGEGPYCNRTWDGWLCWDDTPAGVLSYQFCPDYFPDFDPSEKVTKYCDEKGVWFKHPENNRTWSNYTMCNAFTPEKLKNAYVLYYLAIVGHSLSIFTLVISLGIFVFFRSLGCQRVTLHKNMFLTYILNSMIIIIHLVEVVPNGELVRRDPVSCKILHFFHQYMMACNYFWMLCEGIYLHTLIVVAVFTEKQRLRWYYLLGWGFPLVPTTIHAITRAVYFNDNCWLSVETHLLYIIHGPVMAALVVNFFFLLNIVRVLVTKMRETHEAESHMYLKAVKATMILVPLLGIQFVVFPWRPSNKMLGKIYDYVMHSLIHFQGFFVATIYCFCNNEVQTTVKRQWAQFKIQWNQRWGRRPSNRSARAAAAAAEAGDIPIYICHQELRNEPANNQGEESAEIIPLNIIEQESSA
T1 sequence (looked up) 2: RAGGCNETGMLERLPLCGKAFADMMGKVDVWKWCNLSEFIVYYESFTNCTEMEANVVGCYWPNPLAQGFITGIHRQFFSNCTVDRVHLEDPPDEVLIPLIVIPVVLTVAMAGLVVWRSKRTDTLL

[2] = target: T2, human calcitonin receptor on BHK570/CRE-luc cells (human, UniProt P30988 25-474); experiment: cell-based or functional assay
T2 sequence (looked up): T1 sequence (looked up) 1

hAmylin-R funct. EC50 (pM), tested with HSA [1]: 64 pM
hCTR funct. EC50 (pM), tested with HSA [2]: 48 pM
B1: [N-terminal(C20 diacid-gGlu), des1, 21S, 23Y, 30S, 31G, 33Y]mimylin (peptide)
peptide: {C20 diacid-γGlu}-ASELSTAALGRLSAELHELSTYPRTETGSGSY-NH2
SMILES: CC(C)C[C@H](NC(=O)[C@H](C)NC(=O)[C@H](C)NC(=O)[C@@H](NC(=O)[C@H](CO)NC(=O)[C@H](CC(C)C)NC(=O)[C@H](CCC(=O)O)NC(=O)[C@H](CO)NC(=O)[C@H](C)NC(=O)CC[C@H](NC(=O)CCCCCCCCCCCCCCCCCCC(=O)O)C(=O)O)[C@@H](C)O)C(=O)NCC(=O)N[C@@H](CCCNC(=N)N)C(=O)N[C@@H](CC(C)C)C(=O)N[C@@H](CO)C(=O)N[C@@H](C)C(=O)N[C@@H](CCC(=O)O)C(=O)N[C@@H](CC(C)C)C(=O)N[C@@H](Cc1c[nH]cn1)C(=O)N[C@@H](CCC(=O)O)C(=O)N[C@@H](CC(C)C)C(=O)N[C@@H](CO)C(=O)N[C@H](C(=O)N[C@@H](Cc1ccc(O)cc1)C(=O)N1CCC[C@H]1C(=O)N[C@@H](CCCNC(=N)N)C(=O)N[C@H](C(=O)N[C@@H](CCC(=O)O)C(=O)N[C@H](C(=O)NCC(=O)N[C@@H](CO)C(=O)NCC(=O)N[C@@H](CO)C(=O)N[C@@H](Cc1ccc(O)cc1)C(N)=O)[C@@H](C)O)[C@@H](C)O)[C@@H](C)O

hAmylin-R funct. EC50 (pM), tested with HSA [1]: 81 pM
hCTR funct. EC50 (pM), tested with HSA [2]: 42 pM
B2: [N-terminal(C20 diacid-gGlu), des1, 9S, 23Y, 30S, 31G, 33Y]mimylin (peptide)
peptide: {C20 diacid-γGlu}-ASELSTASLGRLSAELHELATYPRTETGSGSY-NH2
SMILES: CC(C)C[C@H](NC(=O)[C@H](CO)NC(=O)[C@H](C)NC(=O)[C@@H](NC(=O)[C@H](CO)NC(=O)[C@H](CC(C)C)NC(=O)[C@H](CCC(=O)O)NC(=O)[C@H](CO)NC(=O)[C@H](C)NC(=O)CC[C@H](NC(=O)CCCCCCCCCCCCCCCCCCC(=O)O)C(=O)O)[C@@H](C)O)C(=O)NCC(=O)N[C@@H](CCCNC(=N)N)C(=O)N[C@@H](CC(C)C)C(=O)N[C@@H](CO)C(=O)N[C@@H](C)C(=O)N[C@@H](CCC(=O)O)C(=O)N[C@@H](CC(C)C)C(=O)N[C@@H](Cc1c[nH]cn1)C(=O)N[C@@H](CCC(=O)O)C(=O)N[C@@H](CC(C)C)C(=O)N[C@@H](C)C(=O)N[C@H](C(=O)N[C@@H](Cc1ccc(O)cc1)C(=O)N1CCC[C@H]1C(=O)N[C@@H](CCCNC(=N)N)C(=O)N[C@H](C(=O)N[C@@H](CCC(=O)O)C(=O)N[C@H](C(=O)NCC(=O)N[C@@H](CO)C(=O)NCC(=O)N[C@@H](CO)C(=O)N[C@@H](Cc1ccc(O)cc1)C(N)=O)[C@@H](C)O)[C@@H](C)O)[C@@H](C)O

hAmylin-R funct. EC50 (pM), tested with HSA [1]: 52 pM
hCTR funct. EC50 (pM), tested with HSA [2]: 13 pM
Binder: {C18 diacid-γGlu}-ASELTTAVLGRLSAELHELATLPRTETGTGTP-NH2 [[N-terminal(C18 diacid-gGlu), des1, 6T, 9V, 30T, 31G, 32T]mimylin]

hAmylin-R funct. EC50 (pM), tested with HSA [1]: 150 pM
hCTR funct. EC50 (pM), tested with HSA [2]: 105 pM
B3: [N-terminal(C20 diacid-gGlu), des1, 9T, 21S, 23Y, 30S, 31G]mimylin (peptide)
peptide: {C20 diacid-γGlu}-ASELSTATLGRLSAELHELSTYPRTETGSGSP-NH2
SMILES: CC(C)C[C@H](NC(=O)[C@H](CCCNC(=N)N)NC(=O)CNC(=O)[C@H](CC(C)C)NC(=O)[C@@H](NC(=O)[C@H](C)NC(=O)[C@@H](NC(=O)[C@H](CO)NC(=O)[C@H](CC(C)C)NC(=O)[C@H](CCC(=O)O)NC(=O)[C@H](CO)NC(=O)[C@H](C)NC(=O)CC[C@H](NC(=O)CCCCCCCCCCCCCCCCCCC(=O)O)C(=O)O)[C@@H](C)O)[C@@H](C)O)C(=O)N[C@@H](CO)C(=O)N[C@@H](C)C(=O)N[C@@H](CCC(=O)O)C(=O)N[C@@H](CC(C)C)C(=O)N[C@@H](Cc1c[nH]cn1)C(=O)N[C@@H](CCC(=O)O)C(=O)N[C@@H](CC(C)C)C(=O)N[C@@H](CO)C(=O)N[C@H](C(=O)N[C@@H](Cc1ccc(O)cc1)C(=O)N1CCC[C@H]1C(=O)N[C@@H](CCCNC(=N)N)C(=O)N[C@H](C(=O)N[C@@H](CCC(=O)O)C(=O)N[C@H](C(=O)NCC(=O)N[C@@H](CO)C(=O)NCC(=O)N[C@@H](CO)C(=O)N1CCC[C@H]1C(N)=O)[C@@H](C)O)[C@@H](C)O)[C@@H](C)O

hAmylin-R funct. EC50 (pM), tested with HSA [1]: 66 pM
hCTR funct. EC50 (pM), tested with HSA [2]: 35 pM
B4: [N-terminal(C20 diacid-gGlu), des1, 4G, 9V, 23Y, 30S, 31G, 32T]mimylin (peptide)
peptide: {C20 diacid-γGlu}-ASGLSTAVLGRLSAELHELATYPRTETGSGTP-NH2
SMILES: CC(C)C[C@H](NC(=O)CNC(=O)[C@H](CO)NC(=O)[C@H](C)NC(=O)CC[C@H](NC(=O)CCCCCCCCCCCCCCCCCCC(=O)O)C(=O)O)C(=O)N[C@@H](CO)C(=O)N[C@H](C(=O)N[C@@H](C)C(=O)N[C@H](C(=O)N[C@@H](CC(C)C)C(=O)NCC(=O)N[C@@H](CCCNC(=N)N)C(=O)N[C@@H](CC(C)C)C(=O)N[C@@H](CO)C(=O)N[C@@H](C)C(=O)N[C@@H](CCC(=O)O)C(=O)N[C@@H](CC(C)C)C(=O)N[C@@H](Cc1c[nH]cn1)C(=O)N[C@@H](CCC(=O)O)C(=O)N[C@@H](CC(C)C)C(=O)N[C@@H](C)C(=O)N[C@H](C(=O)N[C@@H](Cc1ccc(O)cc1)C(=O)N1CCC[C@H]1C(=O)N[C@@H](CCCNC(=N)N)C(=O)N[C@H](C(=O)N[C@@H](CCC(=O)O)C(=O)N[C@H](C(=O)NCC(=O)N[C@@H](CO)C(=O)NCC(=O)N[C@H](C(=O)N1CCC[C@H]1C(N)=O)[C@@H](C)O)[C@@H](C)O)[C@@H](C)O)[C@@H](C)O)C(C)C)[C@@H](C)O

hAmylin-R funct. EC50 (pM), tested with HSA [1]: 38 pM
hCTR funct. EC50 (pM), tested with HSA [2]: 11 pM
B5: [N-terminal(C18 diacid-gGlu), des1, 5V, 9V, 10V, 30S, 31G]mimylin (peptide)
peptide: {C18 diacid-γGlu}-ASEVSTAVVGRLSAELHELATLPRTETGSGSP-NH2
SMILES: CC(C)C[C@H](NC(=O)[C@H](CCC(=O)O)NC(=O)[C@H](Cc1c[nH]cn1)NC(=O)[C@H](CC(C)C)NC(=O)[C@H](CCC(=O)O)NC(=O)[C@H](C)NC(=O)[C@H](CO)NC(=O)[C@H](CC(C)C)NC(=O)[C@H](CCCNC(=N)N)NC(=O)CNC(=O)[C@@H](NC(=O)[C@@H](NC(=O)[C@H](C)NC(=O)[C@@H](NC(=O)[C@H](CO)NC(=O)[C@@H](NC(=O)[C@H](CCC(=O)O)NC(=O)[C@H](CO)NC(=O)[C@H](C)NC(=O)CC[C@H](NC(=O)CCCCCCCCCCCCCCCCC(=O)O)C(=O)O)C(C)C)[C@@H](C)O)C(C)C)C(C)C)C(=O)N[C@@H](C)C(=O)N[C@H](C(=O)N[C@@H](CC(C)C)C(=O)N1CCC[C@H]1C(=O)N[C@@H](CCCNC(=N)N)C(=O)N[C@H](C(=O)N[C@@H](CCC(=O)O)C(=O)N[C@H](C(=O)NCC(=O)N[C@@H](CO)C(=O)NCC(=O)N[C@@H](CO)C(=O)N1CCC[C@H]1C(N)=O)[C@@H](C)O)[C@@H](C)O)[C@@H](C)O

hAmylin-R funct. EC50 (pM), tested with HSA [1]: 30 pM
hCTR funct. EC50 (pM), tested with HSA [2]: 75 pM
Binder: {C18 diacid-γGlu}-ASELTTAVLGRLSAELHELATLPRTETGSGTP-NH2 [[N-terminal(C18 diacid-gGlu), des1, 6T, 9V, 30S, 31G, 32T]mimylin]

hAmylin-R funct. EC50 (pM), tested with HSA [1]: 729 pM
hCTR funct. EC50 (pM), tested with HSA [2]: 109 pM
B6: [N-terminal(C20 diacid-gGlu), des1, 12H, 25H, 30T, 31G, 32T]mimylin (peptide)
peptide: {C20 diacid-γGlu}-ASELSTAALGHLSAELHELATLPHTETGTGTP-NH2
SMILES: CC(C)C[C@H](NC(=O)[C@H](C)NC(=O)[C@H](C)NC(=O)[C@@H](NC(=O)[C@H](CO)NC(=O)[C@H](CC(C)C)NC(=O)[C@H](CCC(=O)O)NC(=O)[C@H](CO)NC(=O)[C@H](C)NC(=O)CC[C@H](NC(=O)CCCCCCCCCCCCCCCCCCC(=O)O)C(=O)O)[C@@H](C)O)C(=O)NCC(=O)N[C@@H](Cc1c[nH]cn1)C(=O)N[C@@H](CC(C)C)C(=O)N[C@@H](CO)C(=O)N[C@@H](C)C(=O)N[C@@H](CCC(=O)O)C(=O)N[C@@H](CC(C)C)C(=O)N[C@@H](Cc1c[nH]cn1)C(=O)N[C@@H](CCC(=O)O)C(=O)N[C@@H](CC(C)C)C(=O)N[C@@H](C)C(=O)N[C@H](C(=O)N[C@@H](CC(C)C)C(=O)N1CCC[C@H]1C(=O)N[C@@H](Cc1c[nH]cn1)C(=O)N[C@H](C(=O)N[C@@H](CCC(=O)O)C(=O)N[C@H](C(=O)NCC(=O)N[C@H](C(=O)NCC(=O)N[C@H](C(=O)N1CCC[C@H]1C(N)=O)[C@@H](C)O)[C@@H](C)O)[C@@H](C)O)[C@@H](C)O)[C@@H](C)O

hAmylin-R funct. EC50 (pM), tested with HSA [1]: 209 pM
hCTR funct. EC50 (pM), tested with HSA [2]: 53 pM
B7: [N-terminal(C20 diacid-gGlu), des1, 23Y, 30S, 31G, 34K, C-terminal(-)]mimylin (peptide)
peptide: {C20 diacid-γGlu}-ASELSTAALGRLSAELHELATYPRTETGSGSPK-OH
SMILES: CC(C)C[C@H](NC(=O)[C@H](C)NC(=O)[C@H](C)NC(=O)[C@@H](NC(=O)[C@H](CO)NC(=O)[C@H](CC(C)C)NC(=O)[C@H](CCC(=O)O)NC(=O)[C@H](CO)NC(=O)[C@H](C)NC(=O)CC[C@H](NC(=O)CCCCCCCCCCCCCCCCCCC(=O)O)C(=O)O)[C@@H](C)O)C(=O)NCC(=O)N[C@@H](CCCNC(=N)N)C(=O)N[C@@H](CC(C)C)C(=O)N[C@@H](CO)C(=O)N[C@@H](C)C(=O)N[C@@H](CCC(=O)O)C(=O)N[C@@H](CC(C)C)C(=O)N[C@@H](Cc1c[nH]cn1)C(=O)N[C@@H](CCC(=O)O)C(=O)N[C@@H](CC(C)C)C(=O)N[C@@H](C)C(=O)N[C@H](C(=O)N[C@@H](Cc1ccc(O)cc1)C(=O)N1CCC[C@H]1C(=O)N[C@@H](CCCNC(=N)N)C(=O)N[C@H](C(=O)N[C@@H](CCC(=O)O)C(=O)N[C@H](C(=O)NCC(=O)N[C@@H](CO)C(=O)NCC(=O)N[C@@H](CO)C(=O)N1CCC[C@H]1C(=O)N[C@@H](CCCCN)C(=O)O)[C@@H](C)O)[C@@H](C)O)[C@@H](C)O
